In a protein production outcome set (Wang et al. 2014):

Assay: label from the status in PepcDB records

**Q.** For “MAQQWSLQRLAGRHPQDSYEDSTQSSIFTYTNSNSTRGPFEGPNYHIAPRWVYHLTSVWMIFVVIASVFTNGLVLAATMKFKKLRHPLNWILVNLAVADLAETVIASTISVVNQVYGYFVLGHPMCVLEGYTVSLCGITGLWSLAIISWERWMVVCKPFGNVRFDAKLAIVGIAFSWIWAAVWTAPPIFGWSRYWPHGLKTSCGPDVFSGSSYPGVQSYMIVLMVTCCITPLSIIVLCYLQVWLAIRAVAKQQKESESTQKAEKEVTRMVVVMVLAFCFCWGPYAFFACFAAANPGYPFHPLMAALPAFFAKSATIYNPVIYVFMNRQFRNCILQLFGKKVDDGSELSSASKTEVSSVSSVSPA”, which protein production is on record?
**A.** failed

**Q.** For “MAAAPASDVCGGGSKKNCSGRRMSDAAPPVSSPPPRQKGLLGVVERLGNLLPEPVMIFVWLILGLMVLSAIGQALGWSASITYAGDEAPQFGELENGVLTYAASSLFSEANLARLFTEMPKTLTSFAPLGLVLVVILGAAVAERSGLFSALIRASLREAPKRILTPLVVIIGMVSHHASDAAYVVFIPLAGLLYAAVGRHPLAGIAAGFAAVSGGFAGNLTPGQFDVVLFGFTQEAARIIDPTWTMNPLGNWWYILAIVVVFTPIAWFLTDKVVEPRLGPWGGQADDALKAELAKSAVTADEKRGLKFAGLAALAIVALFAALSLIPGFTPLIDETKTGPAQLTPFYGALIAGFMMLFLAGGVAYGVGVGTVKTEGDVVNMMADGVRSVAPYIVFAFFAAHFVAMFNWSRLGPIAAIHGAETLKAMNLPAPLLLVSVLGFSSVLDLFIGSASAKWSALAPVVVPMFMLLGISPEMTTAAYRMGDSFTNLMTPLMSYFPLVLAMTRRWDPSMGVGSLLALMLPYALAFMVAGVAMTLAWVAFDWPLGPAAQVHYTPPGGLLK”, which protein production is on record?
**A.** failed

**Q.** For “MHGSQKDTTFTKIFVGGLPYHTTDASLRKYFEGFGDIEEAVVITDRQTGKSRGYGFVTMADRAAAERACKDPNPIIDGRKANVNLAYLGAKPRSLQTGFAIGV”, which protein production is on record?
**A.** not failed

**Q.** With “AHAPQRISGLALFDPAGVEAPETSDLQHLLEQGKNPFLVRSRADFQHFYSLTMAAPPWVPEAVLAAIAERYQARRGQLARIFAELQASPPMEPELAKIQAPTLLLWGREDRLLHPSSAQVWAKGLPQAQVQLWEGIGHMPMVERPVRSARLYQQFLER” as the sequence, how does the protein production read?
**A.** failed

**Q.** Which protein production does the source give for “MKFEAIAVEKIPLIHEGDNLPSIICEKIGLQDRDIMIIASTIVAKAEGEIFRLEDITPGEEALEIAARTGKDPRFIQAVLSKSREVFVETPFMLVTTLAGHTCVNAGIDESNIENGFLLYPPENPDASALKIGKELEKLSGKKLSIIITDTNGRAFKIGQTGVAIGIYNIKPVKRWIGEKDLFGKVLEITEQAIADELAGAANLLMGEGAGGIPVVIIRGLDYYCEGDTSIKESYRPENMDVIKQGLRCLRNKK” here?
**A.** failed

**Q.** For “MPGFNYGGDQDEVYTPYRRVLVTGATGLLGRAVYKEFKNNDWDALGCGYNRARPFFLKCNLLDEDAVRGVIQSFQPHVIVHCAAERRPDVVERHTEAAMNLNVHACATLAKEAGGSFLIYISTDYVFDGRNPPYGENDAPNPLNLYGKSKLEGEREILRHCPGAAVLRVPILFGEVEKVEESAVTVLFERVQEGAESCTIDHCQQRFPTYTNDVARVCRNMAERALQDQSLRGIFHYSAKEQMTKYEMTCAIADAFNLPSSHLIPMTEQPAGAGAQRPQNAQLECSRLELLGLSVESTPFKNAIRDSLWPFQHDKRWRQTVFH”, which protein production is on record?
**A.** not failed

**Q.** Which protein production does the source give for “MPVVECDIQTARAALADAGASFSDGNSEHELWHADLGDAHAVAYADKLVVQGGSPTDITAVVQPDRGGRVHAYFDGASRGNPGPAAVGWVLVSGDGGIVAEGGDTIGRATNNQAEYDALIAALEAAADFGFDDIELRGDSQLVEKQLTGAWDTNDPDLRRKRVRARELLTGFDDWSITHVPRATNERADALANEALDDA” here?
**A.** failed

**Q.** With “MLDSFKSALQQFAASIRFKFKSLRSYKYVPQIDSRDCGVAALASIAKYYGSDYSLAHLRELAKTSKEGTTALGIVEAAKKMKFETRAIKADMSLFDVEDIPYPFIVHIVKDGKLQHYYVVYGQEKEKVIIGDPDPTVKIATPVQIAICRRMDRCCYFSGT” as the sequence, how does the protein production read?
**A.** failed

**Q.** For “MESQLTLITLTLVIATIFGVALSRFRISPIPAYLIAGLLGKSFGLDYSSDLFNFLSTLAINLVSFNVGISLDIRELKNILSKATIIAITEYIVGFTIISIISLIIGLPFYDTFILTIISVTTSTTITYKLIQNKIDDKQSGLILAVLSLEDVITFIALGVILSSNSNIVEIIPTSLASLGLGYLVSRTIINRSINTSEESVIISSIASVLSFSLLGQIFDIPSTLANFLLGLGASYALKDTKKVSRILSPLIDFSLIFFFFSAGSYLNLSLSSLYVLVPISLIMTLVKYLSFSTSYWLTGSNFLVAFRSGIYMTSLSELGIIVALNAFQQGIITSLVYNLSAFLVMMSSTITSITVPRERRIIGLISKTYEKLRIDRIDGALQRITRVVKLNRNTTSNFILRFILIGLITIFSASYLLIFLVSFARFFIYIAPLISVLVPFLLALLVIEETRRLSNLGQKRINEIILWIIYVFITINFEIFIVRIISELNYYVIYLGILVSIIVIVIMYQRLNTFIKELDKSL”, which protein production is on record?
**A.** failed

**Q.** For “MHARDVMVSPVVTVGPNATVRQVAQILLERRISAVPVVDADNKVLGIVSEGDLLHRAESGTERSPSWWLRLLTGDAQLATDYVKSHSIKVQDVMTQEVATAAPETPLHEIAMLLEERQIKRVPIVNKEGQLVGIVSRANLLQTIASARPKLEISLPDSVIRKRFFEELRKQPWAHTFNVNATVQNGVVDIWGFAPSVAERTAIRVAAEAIPGVATVNDHLLETPAFVY”, which protein production is on record?
**A.** failed

**Q.** For “MAEKKKKNKKQLSSFSILFIILIVLGIVTVLLNGQPFTPREIDGKMVDHVVGAKLSDIIMAPFNGFKDAIEINIFILVLGGFLNIVTQTGALEAGIQSVVKKLKGNELKIIPILMILFSIGGSTYGMAEETIPFYGLLSATMVAAGFDTFVAVGTVLLGAGSGVIGSTVNPFSTGVAMDALRGIGIQPNTGIILIVGAILWAASTSYSIFIVMRYAKKVKADKGSTILSLQEQEDMEKTYGQAASKEMPFTNRHKKILMVFAFCFVIMIVSLIPWNDFGVTIFKGWTSVLTGNSFGDWYFGDLAMWFFLLGIIAALIGRFTEKETIEAFIDGAKDMLSVVLIIVVARGASVLMSKTYLDSFILDKAAGLLQGLSPVLFVIGAFVLYLGLSFLIPSTSGLAYVSIPVMGALAKNIGLSPEVMVMIFASGCGLINLITPTSGVVMGGLEISKVQYATWTKFMAKPMIVLGLINLIILIGAMLLFS”, which protein production is on record?
**A.** failed

**Q.** For “VEIRTGEFEDVAGITDIFNFYIEHTNARFEEFPFTLENREEWFSQFSRTTKYQIYVAVENGVLQGFACSQKYRAIPAFDDTVEVSVYLAQEAKGKGLGSKLYTQLFSSIRAYGVHRILSGVALPNDASVALHKRFGFREVGIFNEYAKKHGQYISSVWLEKALNVESAL”, which protein production is on record?
**A.** not failed

**Q.** Which protein production does the source give for “MEGNCSQGRFDSQVSSMRDLRPNAINQNQKQHHPNSRQDSGFNNTMDTRHNNVDRGKKSMSEDDELCLLSSDGQNKSKENSPWQRVKWMDKMVKLMITALSYIGEDSGSDKKFAVLQKKGKWRSVSKVMDERGYHVSPQQCEDKFNDLNKRYKKLNEMLGRGTSCEVVENPSLLDKIDYLNEKEKDEVRRIMSSKHLFYEEMCSYHNGNRLHLPHDPAVQRSLHLITLGSRDDHDNDEHGKHQNEDLDDDDDYEEDHDGALSDRPLKRLRQSQSHEDVGHPNKGYDVPCLPRSQADVNRGISLDSRKAAGLQRQQIESKSLELEGRKLQIQAEMMELERQQFKWEVFSKRREQKLAKMRMENERMKLENERMSLELKRIELGAKL” here?
**A.** failed

**Q.** With “MSISWSMSRNMFKLAHISDVHLGPLPRLSIQELFSKRITGFVNWHRNRRKHLFASTLDLLLDDIRTHRADHLAVTGDLVNLASGIEIRAAAAWLRALGDPADTSVVPGNHDAYVPGAYEKSMRAWYDYVRGDLAPPQWQEDRRIFPYLRVRDKVAIVGCSTAVATPPFAASGFFSARQARDTVNMLRAAGEAGLFRVVMIHHPPIRGATAFHKRMIGIRRFAAVISTGGAELVLHGHTHLNTLHWLRGQVQPVPVVGIASASQGPGSIKPPAAYNLFSIDGAPGAWELTGERFSLNRTGDAMMPESVDIFAPLEHHHHHH” as the sequence, how does the protein production read?
**A.** failed

**Q.** For “MPGIDKLPIEETLEDSPQTRSLLGVFEEDATAISNYMNQLYQAMHRIYDAQNELSAATHLTSKLLKEYEKQRFPLGGDDEVMSSTLQQFSKVIDELSSCHAVLSTQLADAMMFPITQFKERDLKEILTLKEVFQIASNDHDAAINRYSRLSKKRENDKVKYEVTEDVYTSRKKQHQTMMHYFCALNTLQYKKKIALLEPLLGYMQAQISFFKMGSENLNEQLEEFLANIGTSVQNVRREMDSDIETMQQTIEDLEVASDPLYVPDPDPTKFPVNRNLTRKAGYLNARNKTGLVSSTWDRQFYFTQGGNLMSQARGDVAGGLAMDIDNCSVMAVDCEDRRYCFQITSFDGKKSSILQAESKKDHEEWICTINNISKQIYLSENPEETAARVNQSALEAVTPSPSFQQRHESLRPAAGQSRPPTARTSSSGSLGSESTNLAALSLDSLVAPDTPIQFDIISPVCEDQPGQAKAFGQGGRRTNPFGESGGSTKSETEDSILHQLFIVRFLGSMEVKSDDHPDVVYETMRQILAARAIHNIFRMTESHLLVTCDCLKLIDPQTQVTRLTFPLPCVVLYATHQENKRLFGFVLRTSSGRSESNLSSVCYIFESNNEGEKICDSVGLAKQIALHAELDRRASEKQKEIERVKEKQQKELNKQKQIEKDLEEQSRLIAASSRPNQASSEGQFVVLSSSQSEESDLGEGGKKRESEA”, which protein production is on record?
**A.** failed

**Q.** With “MQKTLTSAIDIPEQMQNDWQNMLDILSNVINVPAALIMRIYDNDIKVFSSSSSTENPYIKGATEKLNQGLYCETVIEERQELTVFNALVDPEWRSNPDLKQNMIAYCGLPLYWPDNTPFGTLCILDKKENHFSPTYQKLMKTYQHSIEAQLNTLYQHADLLNRHQELQAEVARTTQHLNEINIKLSNEIDCRRAAEQKVEYHKNHDVNTGFLNPIAIHKHVDSLIKSETKFVLLHIHFANSRKIQQEYGYQAFDSLLIEYRSKLTKITDTSVTGRLGSSDILLIIQTDKEKLPQLCQHLSEIGQANYTANEQSLHLQTYVGAVHSKEGISRSDLLQFAYDTVVKCQSLGKTFTIADVSLPTQSSLSEHKIERYLLEAVRNHDLFLNYQPKVCPVNKKWIGCEALLRWNHPHLGAIANDVLIQLAERNGLIYELGNFALRNAIQQASEWILHSPNFVMAVNISAVQLKDPHFVTHIKQLLSLYQLPSKNLELEVTESGLISDEPLAITTLSQLNNMGISIALDDFGTGYASFQYLKKYPFSSLKIDKSFIANIEQNEDDQNIVCAMINIAKKLQLKVVVEGVENQNQEAFVVKEGIDLIQGYLYSKPISATDFEEGLFNQSSIGTPYFHFV” as the sequence, how does the protein production read?
**A.** failed

**Q.** For “MAPDASTALAAREKVQQILNAACTGNLEFLKNVAKQLDEGKDLTKTVESIKDANKRGALHFAAREGQTEICRYLLEELKLNADAKDETGDTPLVHAARQGQIETVKYLLEQGADPNIASELGATALHHAAGTGEIELLKELLSRGVPVDSESESGTPLIWAAGHDQKNAVEVLLEHNANPNAETEDNITPLLSAVAAGSLSCLELLVKAGAKANVFAGGATPLHIAADIGNLELINCLLKAGADPNQKDEEGNRPLEVAAARDNRKVVEILFPLTTKPETVSDWTVDGILAHMESNKEQEENSNKAKSQETGIKKDLPVVSPEAKAKAAEAKARGQDAFHRKDFQMAIDAYTQAIDFDPTDHTLFSNRSLCWLRLGQAEHALSDAKACRELNPDWPKGCFREGAALRLLQRFDEAANAFYEGVLLSPESKELIDAFREAVDAGRKFHGKGEVKAKS”, which protein production is on record?
**A.** failed

**Q.** For “MQPFVYMAAPARIVFSAGSSADVAEEIRRLGLSRALVLSTPQQKGDAEALASRLGRLAAGVFSEAAMHTPVEVTKTAVEAYRAAGADCVVSLGGGSTTGLGKAIALRTDAAQIVIPTTYAGSEVTPILGQTENGVKTTMRGPEILPEVVIYDAELTLGLPVAISMTSGLNAMAHAAEALYARDRNPIASMMAVEGLRAMIEALPVVRQAPHDIGARETALYGAWLCGTVLGAVGMSLHHKLCHTLGGSLDLPHAETHAVLLPHTIAYVEEAAPNLLAPLAALVGGRAGAGLFDFAARLGAPSSLAALGVGADDLDPMAELATANPYWCPRPIEKTAIRDLLQRAFEGARPA”, which protein production is on record?
**A.** not failed
